Measured values published in doi:10.1101/679134.
pKd: −log10 of the molar value.

Tested on: CsrA-2 (rCsrA-2) (Coxiella burnetii)
Assay: EMSA
Settings: 30 min 37 C, pH not stated

## CbsR12
  pKd: 6.89
